Reference: the DeepSol protein solubility set

Assay: soluble on expression in E. coli; label from the status in PepcDB or PDB records
For “MSLYCNLLKPIKIGNLELKNRVSFAPTSMGLKLEEKIKKFSDIAKSGVALITLGDVSIRPSFHKVAISLSDEDGVMKYKKIVDEIHNSGAKVSAQLFCSDYDVNLIKDTMKMGITSHDEIKKIMNDGVKDYITNMTKGEIKNIINLFKVTALNAKKAGFDMIQIHGDRLVGSFSSSIFNNRNDEYGGTCDNRSRFASEIISSIRDEVKDIPIDYKFAIRQENPHYGNAGVLLSEVEYFVKKFESLGVNSFHVTLANHSKLEDTIPTNNHPYFKDEGCFLYLADEVKKHTNLPVCGVGKLSSPDFIESIISNNRVDMVSMSRQLLADSNWLQKVKDGRVDEIKKCCYCNKKCADALQTRSQFGCILDEGHHHHHH”, the “soluble on expression in E. coli” value was “soluble”. In the case of “MGSDKIHHHHHHMPNQVSKVNDLKHFFLHLIESGKLSHAYLFLGEDPREIHNLIAAISSRILREKTGDDVFENANLIEVKIPEGKKTLSVDQMRTVRDIFAEKSEHPQIAVIDDADKMTDSAANSILKFIEEPYDRQYIFLQARNRNRVLPTILSRVQLINIPKQKKSEISEQLVDKGIQEDEAIFISRISKSISQADDLLLDGFAINLKRSITEWLDEIFNRQEKSFAFVQSDLLNFVDTNEHQNIFNLALSSELSMRLEKAPNSVLADILDRWLVIYQRSRFTVSWQTMLESFTLEALRMVNGTEKFSNK”, the “soluble on expression in E. coli” value is reported as “not soluble”. In the case of “MQLEPQIKTQLQAIVEAARERRAEDVVALDLTEVSSSLEYFVICTASAGLQLNAVQENIREKAQEAGLPRPSIEGPSERWLLLAFGGSIVVHIMTKDAREYYDLEGLWSDAKVLDL”, the “soluble on expression in E. coli” value is reported as “soluble”. In the case of “MSLHAVDHHAILARFAPSRGGDGNIFRDIDPSRLAHIVVDMQNGFMEEGAPVEVPVARTIVDNINRISAAVRDAGGHNVFLRYTTPPEGGPSWSNFMVRMGREAQGHREAFTPGAHHWQLWPTLDVREADAIVDKHRFSGFTPGTCALKDVLDARGIDTVLITGTLTNCCCESTARDAMQHNYRVLMASDANAALSDEEHAATLHIMAMVFADLHSTQEVVDLLGSEGHHHHHH”, the “soluble on expression in E. coli” value is reported as “soluble”. For “MGSDKIHHHHHHMDDFVQSKARKDIFRLKAYVPGKPIEEVKRELGLDSIIKLASNENPLGTSPLALAALQEGLNKIHLYPDANAYELKQELASFWQVPAEQIVVGNGSDELLLLLAQTFINPGDEVIHAEQTFSEYESTSTLMGAHSITIPLKEYKYDLKAILEAINTRTKIIYLCNPNNPTGTIVEQEEIELFMQQVPGEILVVFDEAYGEYVDNPAFGSGLQYLREGRNIVLLKTFSKIYGLAGLRIGYVITTPAIAAALDRVREPFNVNFAAQIAAQAALRDIDFVEKSRQLNLQGKDYLYQELARLGLDYVKTNTNFIFLDTGRDCQLVFRELLQRGVIIRTGDIFGYPTFIRLTIGTMEENRRFIKSLQEVLEVIPL”, the “soluble on expression in E. coli” value was “not soluble”. In the case of “MTMEKGMSSGEGLPSRSSQVSAGKITAKELETKQSYKEKRGGFVLVHAGAGYHSESKAKEYKHVCKRACQKAIEKLQAGALATDAVTAALVELEDSPFTNAGMGSNLNLLGEIECDASIMDGKSLNFGAVGALSGIKNPVSVANRLLCEGQKGKLSAGRIPPCFLVGEGAYRWAVDHGIPSCPPNIMTTRFSLAAFKRNKRKLELAERVDTDFMQLKKRRQSSEKENDSGTLDAVGAVVVDHEGNVAAAVSSGGLALKHPGRVGQAALYGCGCWAENTGAHNPYSTAVSTSGCGEHLVRTILARECSHALQAEDAHQALLETMQNKFISSPFLASEDGVLGGVIVLRSCRCSAEPDSSQNKQTLLVEFLWSHTTESMCVGYMSAQDGKAKTHISRLPPGAVAGQSVAIEGGVCRLESPVN”, the “soluble on expression in E. coli” value is reported as “soluble”. With “MLKEVPIKRRQSTKIYVGNVPVGGDAPIAVQSMTNTRTTDIEATIAQIKALERVGADIVRVSVPTMDAAEAFKVIKQQVNVPLVADIHFDYRIALKVAEYGVDCLRINPGNIGNEERIRAVVDCAKDKNIPIRIGVNAGSLERDLQEKYGEPTPQALLESALRHVEILDRFNFDQFKVSVKASDVFLAVESYRLLAKAIKQPIHLGITEAGGARAGSVKSAIGLGLLLSEGIGDTLRVSLAADPVDEVKVGFDILKSLRIRSRGINFVACPTCSRQEIDVIATVNALEQRLEDILTPMDVSIIGCVVNGPGEALVSDLGVTGSNKMSGFYLDGVRQKERFDNDKLIDQLEAKIRAKVAQQHHRIAIEQILEHHHHHH” the “soluble on expression in E. coli” value was “not soluble”. For “EVMLVESGGGLVKPGGSLKLSCAASGFTFSSYTMSWVRQTPEKRLEWVATISSGGGNTYYPDSVKGRFTISRDIAKNTLYLQMSSLRSEDTALYYCTRLGDYGYAYTMDYWGQGTSVTVSSAKTTPPSVYPLAPGGGGGGGAMVTLGCLVKGYFPEPVTVTWNSGSLSSGVHTFPAVLQSDLYTLSSSVTVPSSPWPSETVTCNVAHPASSTKVDKKIVPRDC”, the “soluble on expression in E. coli” value was “soluble”. For “MSLGPMRDLTWGQINFIHTTDTHGWIGGHLQEPQYSADWGDYISFTKHMRDQADKRGSDLLVIDTGDRIEGNGLYDASTPKGLFQYDIYAEADVDIMSTGNHELYKAYSADMEHNTTVPNYKNSYLASNLDYISFETGDRVPQAPRYKKFKTKNQGLNIVAFGFLFDFTGNANNTVVQPVEDTIKEDWFQEAIHEKPDLFVVIGHVGLRMEEFKVIYTAIRKQNWHIPIAFFGGHAHVRDTVQYDSKALAIASGRYFETIGWMSIDGIKKGGAKDVEAAASPTEGHHHHHH”, the “soluble on expression in E. coli” value was “soluble”. With “MDYSHQTSLVPCGQDKYISKNELLLHLKTYNLYYEGQNLQLRHREEEDEFIVEGLLNISWGLRRPIRLQMQDDNERIRPPPSSSSWHSGCNLGAQGTTLKPLTVPKVQISEVDAPPEGDQMPSSTDSRGLKPLQEDTPQLMRTRSDVGVRRRGNVRTPSDQRRIRRHRFSINGHFYNHKTSVFTPAYGSVTNVRINSTMTTPQVLKLLLNKFKIENSAEEFALYVVHTSGEKQKLKATDYPLIARILQGPCEQISKVFLMEKDQVEEVTYDVAQYIKFEMPVLKSFIQKLQEEEDREVKKLMRKYTVLRLMIRQRLEEIAETPATILEHHHHHH” the “soluble on expression in E. coli” value was “soluble”. With “MGSDKIHHHHHHMKAIVFGGSGFIGSHIVNSLEADSVAYYSLEKGTNVKRNDAVWIQGDVTDYSKVEASMAGYDTVFFAVEDWAADEARNREILLNGIKNVVSAIKKASTDQKLVSFSMINQPSYPLEYFRTKRLVEDNTRVLKNGLVVRLSIVFGDGDHFTDRFVKLAEQVSHLPEEGNLAPVYVGDVVTVVNSIIKREGVYDICSNDNLPLIRIINYIRKNIGKKEIGSVKLEKGLSMLTETGLFSRYEAELMFQDYYRETSILDRYVKNPTSYLDFLRSILVEHTT” the “soluble on expression in E. coli” value was “not soluble”. For “ISNHPAPEYWCSIAYFEMDVQVGETFKVPSSCPIVTVDGYVDPSGGDRFCLGQLSNVHRTEAIERARLHIGKGVQLECKGEGDVWVRCLSDHAVFVQSYYLDREAGRAPGDAVHKIYPSAYIKVFDLRQCHRQMQQQAATAQAAAAAQAAAVAGNIPGPGSVGGIAPAISLSAAAGIGVDDLRRLCILRMSFVKGWGPDYPRQSIKETPCWIEIHLHRALQLLDEVLHTMPIADPQPLD”, the “soluble on expression in E. coli” value was “soluble”. For “MGSDKIHHHHHHMIIDTSCYPTNLVDLAWRHDGEPFSGERLIQMMDGPFTINGKPRRIDKAFIQPPQGNTIYTWTDGEKSGSESIDAYMAYTVEMVKKYPDRFIGCFVYNPRCGVQNGVNAIEHYVKTLGFKMVQFQANMHAYRPDRALDWLRPALQKCAELGVLVKLHTGDGPYSIPTEWVPMMKEFPTVNFIMAHFGVQTGGVYCFEPFQMAMDMPNVYCESGWCLQSRIVEFAKVLPKHKILFGSDTPPNEPGMWLRLLEVLCFEPPQGLNLDEDTLEDYLGNNVARMIGLEPTPVPRTLEEARARLAA”, the “soluble on expression in E. coli” value was “not soluble”. In the case of “MAHHHHHHMLRFRVRLPKGKEPVSMDLDGTTTWGSFVQSISSLTDVPCSQLRILSGFPPRPVEVGDGAASIASVLPGGGNVIVQVGEADVVKGKTEGRYVPPVDGKWHFVRRVCPSDNSCLFHAAAYVLRNKSRVDGPSLRKECADIVQAYPNVFNEKTILDRPNREYVDFIRNPNAWGGAIELMVLSFLTQTEIVALDLTSSNVLHFGEDNNYTVRAYVVFNGQHYDAIAMNPMFNSPQESEDQVLFSSTDAEVLNRARRFVADEAKKLRLR”, the “soluble on expression in E. coli” value is reported as “soluble”. With “MAINNSAQKFIARNRAPRVQIEYDVEIYGSEKKIELPFVMAVLADLAGKPREELPPVTDRKFLDIDIDNFNERMKAIAPRVAFAVPNTLTGEGQLMVDITLENMDDFSPAQIARKVDALNQLLEARTQLANLQTYMDGKAGAENLVNKLLQDPTLLKTLANAPKSAATQQDVSADNESAE” the “soluble on expression in E. coli” value was “not soluble”. For “MALLVTQPSEGLPPLAATSRSIYEAAYQLSQGTGPFAIDTERAGAYRYDDRAYLLQIRREGSGTVLIDPEANRRLVTSVLGKVINNQPWIIHAAATDLPCLSELGFYPSTIFDTELAGRLAGLPRVNLASMLEERLEVTLKKAHGAEDWSRRPLPHSWLVYAALDVEKLIPLAESMKLLLEAHGKLEWHKQECAHLINTSSHGLDTQRSWQDIKGVSRLTRPRQLVVAEALWELRDDEARMKNTSVSRLLPDKVLISVAQRPPRNSQAALRASEIPKQYRKRIARWMPTINDVLESDPRTWPHTPQFDENQLPSKYVWEKIHPESLDDFEEVKNSIVEKALLLNLPAENLMQPHSVKELCWQLRDVPRPIAQDDVIECLMRLEARPWQIDNSASVITDTLNKIEHAS”, the “soluble on expression in E. coli” value was “not soluble”. For “MSLEAVKTIEKEKKDLEQKRIEEATEEEIKPGDHVKMEGGTSVGKVVEVKSGTALVDFGFLRLKVPVSKLRKTKKEEKKETSTFSYKPSSFRTEIDIRGMTVEEAEPVVKKFIDDLMMNGISKGYIIHGKGTGKLASGVWEILRKDKRVVSFRFGTPSEGGTGVTVVEVKEGHHHHHH”, the “soluble on expression in E. coli” value was “soluble”. For “MKLIGITGMPGSGKSAITKLAEKYKIVVVSMGDVVRYETLKQGMPLNPENVGNTAVKLREIYGKEAIAVPCLNYVNEKYNNEDFVIIEGIRSIYEVNYIKKHAELDIIAIHSSPKTRFERLSGRNREDDSNDWNTFVERDERELNFSIGRVISLADYMVVNEGNYMDFVNDLENTFKKIINVN”, the “soluble on expression in E. coli” value was “not soluble”. In the case of “MGSDKIHHHHHHMEFSNAERDVFLIKIEKMIDRGALMSRYSRASDPDIRSVYEKEFKTGAKSGEEFYRRIFLEYGDESIAELTTAQMGIQNVSNVASKIIEEIRIGLSYLEKSTRYVRYDKKVDGRYLYISPERIGISGDDAKDYVQLCDNLFEFYSKALPQVEDYLRHKFPQDKLVFQNAGGKTLTEMDQNEKKIAERSYINAVRSRALDDVRYILPASTLTNIGISGNGRALIHLIQKLMEYEIPETTKLAKDIYDELKPELPQLIDDALSGHGLEIINFKKNLMGLFPYDLTGNFERIRLLSYGEEDKELRKVASLIEYPFHGDAASLYSRSSESYVKYMKELIESIRSLRANRRMKPGRAFESVNYVFELNLNYGSFRDLQRHRFLGIIRKPLTAAYGYDTPPVISAIDELKTQYDELMANSSSFYQRLREKYGPWISQYVVPFAFKYPITFSTNLSEVTYFVELRSTAQAHFDLRDIAVSMYREVSKVHPTLSRIIKFVDTADYPLGRLSAEFRKESKKAGI”, the “soluble on expression in E. coli” value is reported as “not soluble”. With “MAHHHHHHMSGVVIKKPNLKRLLAGQREELASFQPPVHPIPEYLGSPLPYLSNPYHIRGTLMAVEQEPEPNHEADGGKQLMADIMNERARICLEVEKTLALTCRVLDKAAQNDGELTELARESLARLTVMGEDLSNRMITSRE” the “soluble on expression in E. coli” value was “not soluble”. With “MSLAFVPHVPRHSRGDNPPSASTASPAVLTLTGERTIPDLDIENYWFRRHQVVYQRLAPRCTARDVLEAGCGEGYGADLIACVARQVIAVDYDETAVAHVRSRYPRVEVMQANLAELPLPDASVDVVVNFQVIEHLWDQARFVRECARVLRGSGLLMVSTPNRITFSPGRDTPINPFHTRELNADELTSLLIDAGFVDVAMCGLFHGPRLRDMDARHGGSIIDAQIMRAVAGAPWPPELAADVAAVTTADFEMVAAGHDRDIDDSLDLIAIAVREGHHHHHH” the “soluble on expression in E. coli” value was “soluble”.
